Experimental data: article PMC9132996

tested on: PutA (proline utilization A) (Ralstonia solanacearum GMI1000); experiment: MST; settings: room temperature 30 min, buffer not stated

Substance	Kd
epsA promoter 336 bp	10.7 nM
phcB promoter 327 bp	13 nM
solI promoter 324 bp	12.7 nM
trpEG promoter 291 bp	17.1 nM
